Measured values: patent US20260258131A1 (ADAGENE PTE, published 2026)

What was measured:
[1] = biological target: T1, biotinylated CTLA-4 protein (UniProt P16410 36-161, limits assumed, biotinylated (sites not given)); assay: competition ELISA, biotinylated CTLA-4 on coated CD86 (competitor CD86)
T1 construct: also called receptor CTLA-4
T1 sequence (looked up): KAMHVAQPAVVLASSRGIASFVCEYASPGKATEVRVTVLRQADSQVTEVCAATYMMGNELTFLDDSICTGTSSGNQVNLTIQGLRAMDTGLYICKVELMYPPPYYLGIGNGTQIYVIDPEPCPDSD
Text: (§1) Relative CTLA-4 and its ligand binding was monitored by reading the absorbance at 450 nm wavelength in the micro-plate reader.

[2] = biological target: T1, biotinylated CTLA-4 protein; assay: competition ELISA, biotinylated CTLA-4 on coated CD80 (competitor CD80)
Text: as §1

[3] = biological target: T2, recombinant cynomolgus monkey CTLA-4 protein (cynomolgus monkey, UniProt G7PL88 36-161); assay: SPR (Biacore), antibody captured by anti-human IgG Fc, CTLA-4 in flow
T2 sequence: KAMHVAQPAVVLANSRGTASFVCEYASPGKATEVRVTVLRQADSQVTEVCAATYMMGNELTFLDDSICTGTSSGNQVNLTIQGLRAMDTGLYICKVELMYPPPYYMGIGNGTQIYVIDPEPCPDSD
Description: (§2) Serial dilutions of recombinant CTLA-4 proteins of different species origins were sequentially loaded and flowed through the chip to measure the kinetics of CTLA-4 antigen association (kₐ), followed by a buffer flow-through phase for dissociation kinetics (kd) measurement. The binding affinity (KD) is then calculated with […].

[4] = biological target: T3, recombinant rat CTLA-4 protein (rat, UniProt Q62859 36-161); assay: as above
T3 sequence: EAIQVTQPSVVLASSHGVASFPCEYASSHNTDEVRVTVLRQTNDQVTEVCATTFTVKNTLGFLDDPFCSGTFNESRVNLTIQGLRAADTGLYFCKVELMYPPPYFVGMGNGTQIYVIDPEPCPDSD
Description: as §2

[5] = biological target: T4, recombinant human CTLA-4 protein (human, UniProt P16410 36-161, limits assumed); assay: as above
T4 sequence (looked up): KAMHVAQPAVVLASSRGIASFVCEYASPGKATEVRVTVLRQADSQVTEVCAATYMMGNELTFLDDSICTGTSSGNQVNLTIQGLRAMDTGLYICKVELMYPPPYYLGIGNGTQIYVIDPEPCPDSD
Description: as §2

[6] = biological target: recombinant mouse CTLA-4 protein (mouse, UniProt P09793 36-161, limits assumed); assay: as above
Description: as §2

[7] = biological target: T5, Recombinant human CTLA4-hisFc (human, UniProt P16410 36-161, limits assumed); assay: ELISA, coated CTLA4-hisFc
T5 construct: Coated on the ELISA plate; the whole UniProt entry is named; also called recombinant human CLTA4-hisFc; its antigen; not shown: his tag and Fc
T5 sequence (looked up): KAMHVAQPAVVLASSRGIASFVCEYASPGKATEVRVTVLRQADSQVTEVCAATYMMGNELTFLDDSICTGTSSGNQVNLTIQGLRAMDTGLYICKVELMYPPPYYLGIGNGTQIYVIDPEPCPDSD
Description: (§3) Plates were blocked with PBS supplemented with 3% non-fat milk at 37° C. for 1 hour. After washing, 100 µL of 3-fold serial dilutions of antibodies were added to each well. After incubation at 37° C. for 1 hour, plates were washed four times, and 100 μL HRP conjugated anti-human IgG (Fab specific) (1:6000 dilution) was added to each well. Plates were incubated at 37° C. for 1 hour, washed four times, and then 50 μL TMB substrate solution was added to each well, and the plate was incubated at room temperature. Absorbance at 450 nm was measured after the reactions were stopped with 50 μL H2SO4 per well. The EC50 was evaluated by fitting the ELISA data using the sigmoidal (four-parameter logistic equation) model of GraphPad Prism 6 software. Experiments for some activatable antibodies were performed twice or more, leading to two or more calculated masking efficiencies being obtained for each of these activatable antibodies.
(§4) The purified activatable antibodies were treated with the proteases which recognize the cleavage sequences, and were then tested to determine whether removal of the masking peptide restored their activity. […] The reactions were carried out at 37° C. for 24 hours. […] The masking efficiency was then measured by ELISA as described above.

[8] = biological target: T6, human CTLA4 expressed on cells (human, UniProt P16410 36-223); assay: cell-based or functional assay
T6 sequence (looked up): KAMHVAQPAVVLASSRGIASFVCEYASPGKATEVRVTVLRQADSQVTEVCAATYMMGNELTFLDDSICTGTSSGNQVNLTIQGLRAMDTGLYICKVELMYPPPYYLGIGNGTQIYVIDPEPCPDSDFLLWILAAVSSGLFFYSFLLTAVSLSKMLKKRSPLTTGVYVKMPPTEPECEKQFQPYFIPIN

[9] = biological target: T5, Recombinant human CTLA4-hisFc; assay: ELISA, coated CTLA4-hisFc, after MMP-9 cleavage
Description: as §3, §4

Binder | IC50 [1] [nM] | IC50 [2] [nM] | Kd [3] [nM] | Kd [4] [nM] | Kd [5] [nM] | Kd [6] [nM] | EC50 [7] [nM] | ADCP reporter activity (luciferase), EC50 [8] [nM] | EC50 [9] [nM]
TY24652 (antibody, human IgG1, kappa, also called non-cleaved form TY24652) heavy: not shown light: ETLCEPFATSVCRPGGGPLGLAGGGSDIQLTQSPSSLSASVGDRVTITCRASQSVRGRFLAWYQQKPGKAPKLLIYDASNRATGIPSRFSGSGSGTDFTLTISSLQPEDFATYYCQQSSSWPPTFGQGTKVEIKRTVAAPSVFIFPPSDEQLKSGTASVVCLLNNFYPREAKVQWKVDNALQSGNSQESVTEQDSKDSTYSLSSTLTLSKADYEKHKVYACEVTHQGLSSPVTKSFNRGEC | > 4000 | > 20000 | 32.3 | 59.5 | 32.5 | 49.4 | – | – | –
TY21580 (antibody, human IgG1, V domains shown, also called parental antibody TY21580) VH: EVQLVESGGGLVQPGGSLRLSCAASGYSISSGYHWSWIRQAPGKGLEWLARIDWDDDKYYSTSLKSRLTISRDNSKNTLYLQLNSLRAEDTAVYYCARSYVYFDYWGQGTLVTVSS VL: DIQLTQSPSSLSASVGDRVTITCRASQSVRGRFLAWYQQKPGKAPKLLIYDASNRATGIPSRFSGSGSGTDFTLTISSLQPEDFATYYCQQSSSWPPTFGQGTKVEIKR | – | – | 0.37 | 0.78 | – | 0.5 | 0.298 | 5.6 | –
TY24652-MMP9 (antibody, IgG1, TY24652 after 24 h with MMP-9; IgG1 Fc with S239D/I332E) heavy: not shown light: DIQLTQSPSSLSASVGDRVTITCRASQSVRGRFLAWYQQKPGKAPKLLIYDASNRATGIPSRFSGSGSGTDFTLTISSLQPEDFATYYCQQSSSWPPTFGQGTKVEIKRTVAAPSVFIFPPSDEQLKSGTASVVCLLNNFYPREAKVQWKVDNALQSGNSQESVTEQDSKDSTYSLSSTLTLSKADYEKHKVYACEVTHQGLSSPVTKSFNRGEC | 17.5 | 280 | – | 0.69 | – | 0.63 | – | – | 0.313
